Assay results as given in patent US20230056856, “COMPOSITIONS AND METHODS FOR TUNABLE REGULATION OF TRANSCRIPTION” (OBSIDIAN THERAPEUTICS, INC., published 2023).

B1: 8xZFHD1 binding sites of payload ZFHD-007 (dsDNA)
DNA 1: TAATGATGGGCGCACGAGTAATGATGGGCGGACGACTAATGATGGGCGCACGAGTAATGATGGGCGTCTAGCTAATGATGGGCGCTAGAGTAATGATGGGCGGTAGACTAATGATGGGCGCTCCAGTAATGATGGGCG
DNA 2: CGCCCATCATTACTGGAGCGCCCATCATTAGTCTACCGCCCATCATTACTCTAGCGCCCATCATTAGCTAGACGCCCATCATTACTCGTGCGCCCATCATTAGTCGTCCGCCCATCATTACTCGTGCGCCCATCATTA
B2: 8xZFHD1 BS payload ZFHD-022 (dsDNA)
DNA 1: B1 DNA 1
DNA 2: B1 DNA 2

Columns and labels:
[1] = target: ZFHD1-p65 (ZFHD-004, constitutive) (Artificial (Homo sapiens/Mus …)); assay: cell_activity; U2OS, constitutive TF; TMP/DMSO ratio only, not regulated by ligand
[2] = target: ZFHD1-p65-linker-ecDHFR(R12Y,Y100I) (ZFHD-009) (Artificial); assay: cell_activity; U2OS, GFP MFI 10 uM TMP vs DMSO, 72 h
Experimental: (§1) Ligand treatment: Each cell line was plated in 12-well plates at a density of 80,000 cells/well and allowed to adhere overnight. Media was removed and replacement media either with 10 μM Trimethoprim (TMP) or 0.1% DMSO was added. Cells were incubated for 24 hour, 48 hour, and 72 hour timepoints. At each timepoint, cells were removed from the plates with 0.25% trypsin for collection. A 0 hour timepoint was also collected before addition of TMP or DMSO.

[3] = target: ZFHD1-ecDHFR(R12Y,Y100I)-p65 (ZFHD-008) (Artificial); assay: as above
Experimental: as §1

[4] = target: ZFHD1-p65-ecDHFR(R12Y,Y100I) (ZFHD-005) (Artificial); assay: as above
Experimental: as §1

[5] = target: ZFHD1-p65-CA2(L156H) (ZFHD-019) (Artificial); assay: cell_activity; ARPE-19, GFP MFI 10 uM ACZ vs DMSO, 48 h; in U2OS ACZ EC50 of payload 1.1 uM (Example 9)
Experimental: Cells were cultured in DMEM-F12 media supplemented with 10% FBS.
Ligand treatment: Each cell line was plated at a density of 15,000 cells/well in 6-8 wells of a 24-well plate. Cells were allowed to adhere overnight. […] After 48 hours incubation, cells were removed from the plate with 0.25% trypsin and collected. […] For flow cytometry, samples were washed once with cell staining buffer (Biolegend, San Diego, Calif.), resuspended in cell staining buffer with 1% QSol™ buffer (Intellicyt Corporation, Albuquerque, N. Mex.), and analyzed by flow cytometry.

[6] = target: ZFHD1-p65-CA2(L156H) (ZFHD-048) (Artificial); assay: cell_activity; Jurkat, GFP MFI 10 uM ACZ vs DMSO, 48 h

Binder	activity [1] [fold]	activity [2] [fold]	activity [3] [fold]	activity [4] [fold]	activity [5] [fold]	activity [6] [fold]
B1	0.894	5.71	3.57	11.4	~1.9	
B2						~2.1
